Test results taken from patent publication US20140011209, “Aptamers for Prion Diagnostics and Aptamer Binding Detection System” (Aptrix Biosystems LLC, published 2014).

How the values were obtained:
[1] = biological target: RVV-X (Russell's viper venom factor X activator) (UniProt Q7LZ61;Q4PRD1;Q4PRD2 Q7LZ61:189-619,Q4PRD1:24-146,Q4PRD2:25-158); experiment: EMSA; settings: tags: Haematologic Technologies; label: 32P end
[2] = biological target: T1, RVV-X (Russell's viper venom factor X activator) (UniProt Q7LZ61;Q4PRD1;Q4PRD2 Q7LZ61:189-619,Q4PRD1:24-146,Q4PRD2:25-158); experiment: EMSA; room temperature, 1 h; settings: tags: Haematologic Technologies, label: 32P end
[3] = biological target: T1, RVV-X (Russell's viper venom factor X …); experiment: EMSA; settings: tags: Haematologic Technologies; label: 32P end; three loops, two bulges, three stems
[4] = biological target: T1, RVV-X (Russell's viper venom factor X …); experiment: EMSA; scrambled SEQ 1, negative control; settings: tags: Haematologic Technologies; label: 32P end
alpha-Thrombin = alpha-Thrombin (Homo sapiens, UniProt P00734;P00734 P00734:328-363,P00734:364-622); experiment: EMSA; settings: tags: Haematologic Technologies; label: 32P end; two loops and two short stems
[5] = biological target: T1, RVV-X (Russell's viper venom factor X …); experiment: EMSA; prion binding component alone; settings: tags: Haematologic Technologies; label: 32P end; two loops and two short stems

B1: 74 alone (ssRNA)
RNA: UCCUCAAAGCGACCGACCUUUGCCUAAACAGCUGAUGGUUUACAAAGGAAGCACG
In the case of B1, the Kd [1] is reported as 75 nM.

Work on UCCUCAAAGCGACCGACCUUUGCCUAAACAGCUGAUGGUUUACAAAGGAA (ssRNA) [74, 5 from 3'] yielded a Kd [2] of 352 nM.

B2: SEQ ID NO. 1 (ssRNA)
RNA: UAGCGACAAGGCGACAAGCAAUGACACAUUAACAGACCCUGGUUAGUGAACGAA
With B2 the Kd [1] was 30 nM.

B3: SEQ ID NO. 4 (ssRNA)
RNA: UGGCGACGAGGCGGCAGGCAAUGACACAUUAGCAGACCCUGGUUAAUGAGCGAA
B3 gave a Kd [1] of 158 nM.

B4: Fus74_10_5 (ssRNA)
RNA: GACCGGGGAGACAAGACUAGACGCUCAACUACGAACUCAUGACACAAGGAUGCAAUCUCAUCCCGACCUUUGCCUAAACAGCUGAUGGUUUACAAAGGAAGCACG
In the case of B4, the Kd [3] is reported as 63.9 nM.

In the case of AAAGCGACCGACCUUUGCCUAAACAGCUGAUGGUUUACAAAGGAA (ssRNA) [74, 5 from both], the Kd [2] is reported as 426 nM.

B5: Scrambled SEQ ID NO. 107 (ssRNA)
RNA: GGAGGCCAACUAAUAACGCCAGAACUAUAGGAAUCCCAUGAAGCGAGCGAGAAUU
B5 was tested, and the Kd [4] was 131 nM.

B6: SEQ ID NO. 6 (ssRNA)
RNA: UGGCGGAUACUCUGCGAAGGGCGAACCCAACAUUUCGCACAGGACCGACUACUGCA
Work on B6 yielded a Kd [1] of 19 nM.

For AAAGCGACCGACCUUUGCCUAAACAGCUGAUGGUUUACAAAGGAAGCACG (ssRNA) [74, 5 from 5'], the Kd [2] was 374 nM.

In the case of UCCUCAAAGCGACCGACCUUUGCCUAAACAGCUGAUGGUUUACAA (ssRNA) [74, 10 from 3'], the Kd [2] is reported as 301 nM.

In the case of GACCGACCUUUGCCUAAACAGCUGAUGGUUUACAAAGGAAGCACG (ssRNA) [74, 10 from 5'], the Kd ([2]; stem-loop with bulge) is reported as 250 nM.

B7: SEQ ID NO. 3 (ssRNA)
RNA: UCUUCCAACGACCAUGCGGCGACAAGCGACUACAAGAGGGUACCCACGGACAGCA
Work on B7 yielded a Kd [1] of 94.7 nM.

B8: SEQ ID NO. 2 (ssRNA)
RNA: AAGGCGAGGUGCGACCCGCACGUGGCAUCUGAUAGCACAUGAAAAGGCACGUCA
In the case of B8, the Kd [1] is reported as 23 nM.

B9: B-end (PrPSc binding region) (ssRNA)
RNA: GGGAGACAAGACUAGACGCUCAACUACGAACUCAUGACACAAGGAUGCAAUCUCAUCCCG
In the case of B9, the Kd (alpha-Thrombin) is reported as 4220 nM and the Kd [5] is reported as 170 nM.
